{"source": "patent US20090087494A1", "about": "(BOARD OF REGENTS OF THE UNIVERSITY OF NEBRASKA, published 2009)", "binders": {"B1": {"name": "deslorelin (peptide)", "peptide": "EHWSYWLRP", "modifications": "pGlu at position 1; D-Trp at position 6; C-terminal ProNHEt (ethylamide)", "notes": "Synthetic LHRH analog, gift from Balance Pharmaceuticals; also called unlabelled deslorelin; unlabeled deslorelin"}}, "key": {"bovine LHRH receptor [1]": {"target": "T1, bovine LHRH receptor (bovine, UniProt P32236 1-328)", "T1 construct": "whole, on cells; The receptor stood in crude membrane preparations of bovine tissue homogenates, not on intact cells; also called GnRH receptor", "T1 sequence (looked up)": "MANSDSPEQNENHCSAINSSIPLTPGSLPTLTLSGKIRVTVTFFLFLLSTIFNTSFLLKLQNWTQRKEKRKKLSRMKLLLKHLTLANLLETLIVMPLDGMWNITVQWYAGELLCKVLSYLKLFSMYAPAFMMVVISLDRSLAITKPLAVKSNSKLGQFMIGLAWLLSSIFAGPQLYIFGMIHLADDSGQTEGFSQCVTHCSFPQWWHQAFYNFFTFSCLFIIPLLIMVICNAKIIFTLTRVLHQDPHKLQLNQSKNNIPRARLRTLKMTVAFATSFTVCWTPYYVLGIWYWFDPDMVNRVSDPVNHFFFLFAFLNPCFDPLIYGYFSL", "test": "displacement of 125I-deslorelin, bovine nasal MTA region membranes, high affinity site (IC50 I)", "description": "(§1) Competition Studies: To determine the amount of unlabelled deslorelin required to displace the radioactivity, competition studies were conducted. Briefly, membranes were incubated with 100,000 cpm of I¹²⁵ deslorelin in the presence or absence of unlabelled deslorelin (0.01-3,000 ng) in a total volume of 200 μl for 4 hr at 4° C. Assays were performed in triplicates. At the end of 4 hr, the incubation tubes were centrifuged at 10,000 g for 20 min at 4° C. to separate the bound fraction. Radioactivity was measured in the pellet using a Perkin-Elmer γ-counter. The same controls as in the kinetic and saturation studies were used. The experiment was repeated three times."}, "bovine LHRH receptor [2]": {"target": "T1, bovine LHRH receptor", "test": "displacement of 125I-deslorelin, bovine pituitary membranes, low affinity site (IC50 II)", "description": "as §1"}, "bovine LHRH receptor [3]": {"target": "T1, bovine LHRH receptor", "test": "displacement of 125I-deslorelin, bovine nasal MTP region membranes, low affinity site (IC50 II)", "description": "as §1"}, "bovine LHRH receptor [4]": {"target": "T1, bovine LHRH receptor", "test": "displacement of 125I-deslorelin, bovine nasal MTP region membranes, high affinity site (IC50 I)", "description": "as §1"}, "bovine LHRH receptor [5]": {"target": "T1, bovine LHRH receptor", "test": "displacement of 125I-deslorelin, bovine nasal ITP region membranes, high affinity site (IC50 I)", "description": "as §1"}, "bovine LHRH receptor [6]": {"target": "T1, bovine LHRH receptor", "test": "displacement of 125I-deslorelin, bovine nasal MTA region membranes, low affinity site (IC50 II)", "description": "as §1"}, "bovine LHRH receptor [7]": {"target": "T1, bovine LHRH receptor", "test": "displacement of 125I-deslorelin, bovine nasal ITP region membranes, low affinity site (IC50 II)", "description": "as §1"}, "bovine LHRH receptor [8]": {"target": "T1, bovine LHRH receptor", "test": "displacement of 125I-deslorelin, bovine pituitary membranes, high affinity site (IC50 I)", "description": "as §1"}}, "data": [{"binder": "B1", "values": [{"measurement": "IC50", "setting": "bovine LHRH receptor [1]", "value": 0.136, "unit": "nM"}, {"measurement": "IC50", "setting": "bovine LHRH receptor [2]", "value": 17.9, "unit": "nM"}, {"measurement": "IC50", "setting": "bovine LHRH receptor [3]", "value": 42.1, "unit": "nM"}, {"measurement": "IC50", "setting": "bovine LHRH receptor [4]", "value": 0.112, "unit": "nM"}, {"measurement": "IC50", "setting": "bovine LHRH receptor [5]", "value": 0.102, "unit": "nM"}, {"measurement": "IC50", "setting": "bovine LHRH receptor [6]", "value": 53.2, "unit": "nM"}, {"measurement": "IC50", "setting": "bovine LHRH receptor [7]", "value": 32.9, "unit": "nM"}, {"measurement": "IC50", "setting": "bovine LHRH receptor [8]", "value": 0.031, "unit": "nM"}]}]}
